The labels stand for the following.
B1: Protein PTHB1 (Homo sapiens), Q3SYG4 (parent)
chain: MSLFKARDWWSTILGDKEEFDQGCLCLANVDNSGNGQDKIIVGSFMGYLRIFSPHPAKTGDGAQAEDLLLEVDLRDPVLQVEVGKFVSGTEMLHLAVLHSRKLCVYSVSGTLGNVEHGNQCQMKLMYEHNLQRTACNMTYGSFGGVKGRDLICIQSMDGMLMVFEQESYAFGRFLPGFLLPGPLAYSSRTDSFLTVSSCQQVESYKYQVLAFATDADKRQETEQQKLGSGKRLVVDWTLNIGEQALDICIVSFNQSASSVFVLGERNFFCLKDNGQIRFMKKLDWSPSCFLPYCSVSEGTINTLIGNHNNMLHIYQDVTLKWATQLPHIPVAVRVGCLHDLKGVIVTLSDDGHLQCSYLGTDPSLFQAPNVQSRELNYDELDVEMKELQKIIKDVNKSQGVWPMTEREDDLNVSVVVSPNFDSVSQATDVEVGTDLVPSVTVKVTLQNRVILQKAKLSVYVQPPLELTCDQFTFEFMTPDLTRTVSFSVYLKRSYTPSELEGNAVVSYSRPTDRNPDGIPRVIQCKFRLPLKLICLPGQPSKTASHKITIDTNKSPVSLLSLFPGFASQSDDDQVNVMGFHFLGGARITVLASKTSQRYRIQSEQFEDLWLITNELILRLQEYFEKQGVKDFACSFSGSIPLQEYFELIDHHFELRINGEKLEELLSERAVQFRAIQRRLLARFKDKTPAPLQHLDTLLDGTYKQVIALADAVEENQGNLFQSFTRLKSATHLVILLIALWQKLSADQVAILEAAFLPLQEDTQELGWEETVDAAISHLLKTCLSKSSKEQALNLNSQLNIPKDTSQLKKHITLLCDRLSKGGRLCLSTDAAAPQTMVMPGGCTTIPESDLEERSVEQDSTELFTNHRHLTAETPRPEVSPLQGVSE
partner: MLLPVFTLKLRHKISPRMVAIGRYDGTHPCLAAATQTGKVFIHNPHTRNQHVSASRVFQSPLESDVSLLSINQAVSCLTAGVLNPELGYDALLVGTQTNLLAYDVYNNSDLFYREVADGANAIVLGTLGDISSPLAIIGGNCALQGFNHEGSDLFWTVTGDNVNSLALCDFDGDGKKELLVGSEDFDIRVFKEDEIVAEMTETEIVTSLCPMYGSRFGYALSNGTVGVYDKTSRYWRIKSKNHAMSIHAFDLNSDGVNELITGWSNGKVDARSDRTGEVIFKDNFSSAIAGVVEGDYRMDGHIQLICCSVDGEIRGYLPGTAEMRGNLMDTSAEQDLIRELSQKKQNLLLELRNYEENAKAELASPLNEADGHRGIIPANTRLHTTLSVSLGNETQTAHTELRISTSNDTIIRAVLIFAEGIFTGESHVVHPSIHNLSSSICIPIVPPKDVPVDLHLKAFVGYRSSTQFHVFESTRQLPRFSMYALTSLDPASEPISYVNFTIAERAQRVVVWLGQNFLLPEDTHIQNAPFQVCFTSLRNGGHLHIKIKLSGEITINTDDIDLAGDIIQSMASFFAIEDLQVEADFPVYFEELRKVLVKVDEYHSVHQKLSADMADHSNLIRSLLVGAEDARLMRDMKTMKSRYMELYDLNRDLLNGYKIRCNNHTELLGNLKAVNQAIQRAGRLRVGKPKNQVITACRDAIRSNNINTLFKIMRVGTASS

The assay covers variants of B1. To be noted: with bbs2_human BBS2, Q9BXC9.
Take C783K: the “effect of a mutation on the interaction” value is “with no effect”.
For K821A the value was “with no effect”; for K821E, “with no effect”.
For L814E the value was “with no effect”; for L814A, “with no effect”.
In the case of L814K, the “effect of a mutation on the interaction” value was “with no effect”.
Regarding S828K, the “effect of a mutation on the interaction” value is reported as “with no effect”.
Under S828E stands “with no effect”.
For S828A the value was “with no effect”; for K789A, “with no effect”.
For K789E the value was “with no effect”; for C826E, “with no effect”; for C826K, “with no effect”.
In the case of C826A, the “effect of a mutation on the interaction” value is given as “with no effect”.
For L808E the value was “disrupting interaction strength”; for L808A, “with no effect”.
Consider L808K, for which the “effect of a mutation on the interaction” value was “with no effect”.
For L784A the value was “with no effect”.
Under L784E stands “with no effect”; under L784K, “with no effect”; under T836K, “with no effect”.
Under T836E stands “with no effect”; under T836A, “with no effect”.
Take C816A: the “effect of a mutation on the interaction” value is recorded as “with no effect”.
For C816K the value was “with no effect”.
Under C816E stands “with no effect”.
Under I801E stands “with no effect”; under I801K, “with no effect”.
In the case of I801A, the “effect of a mutation on the interaction” value is reported as “with no effect”.
Under Q798E stands “with no effect”; under Q798A, “with no effect”.
Regarding Q798K, the “effect of a mutation on the interaction” value is reported as “with no effect”.
Under S788A stands “with no effect”; under S788K, “with no effect”; under S788E, “with no effect”.
Consider L819A, for which the “effect of a mutation on the interaction” value is listed as “with no effect”.
For L819E the value was “with no effect”; for L819K, “with no effect”; for Q835K, “with no effect”.
Under Q835E stands “with no effect”.
Take Q835A: the “effect of a mutation on the interaction” value is given as “with no effect”.
Under Q835M stands “disrupting interaction strength”; under M839E, “with no effect”.
Under M839K stands “disrupting interaction strength”.
For M839A the value was “with no effect”; for A792K, “with no effect”; for A792E, “with no effect”.
For T813E, the “effect of a mutation on the interaction” value was “with no effect”.
Under T813K stands “with no effect”; under T813C, “disrupting interaction strength”; under T813A, “with no effect”.
Under A833S stands “disrupting interaction strength”; under A833E, “with no effect”; under A833K, “with no effect”.
For T782A the value was “with no effect”; for T782K, “with no effect”; for T782E, “with no effect”.
G822R: the “effect of a mutation on the interaction” value is recorded as “disrupting interaction strength”.
Under G822E stands “with no effect”; under G822A, “with no effect”; under G822K, “with no effect”.
Regarding L815A, the “effect of a mutation on the interaction” value is given as “with no effect”.
L815E: the “effect of a mutation on the interaction” value is on record as “with no effect”.
Regarding L815K, the “effect of a mutation on the interaction” value is “with no effect”.
On to L815F, for which the “effect of a mutation on the interaction” value is listed as “disrupting interaction strength”.
Under K803E stands “with no effect”; under K803A, “with no effect”.
Under A831K stands “with no effect”.
Under A831E stands “with no effect”.
As for L795A, the “effect of a mutation on the interaction” value is given as “with no effect”.
For L795K the value was “with no effect”.
Take L795E: the “effect of a mutation on the interaction” value is recorded as “with no effect”.
R818A: the “effect of a mutation on the interaction” value is reported as “with no effect”.
Under R818E stands “with no effect”.
For R818K the value was “with no effect”.
As for G823E, the “effect of a mutation on the interaction” value is “with no effect”.
Under G823A stands “with no effect”; under G823K, “with no effect”; under P802A, “with no effect”.
P802K: the “effect of a mutation on the interaction” value was “with no effect”.
Under P802E stands “with no effect”.
Under D817E stands “with no effect”; under D817A, “with no effect”; under D817K, “with no effect”.
Under Q807K stands “with no effect”; under Q807A, “with no effect”.
Q807E: the “effect of a mutation on the interaction” value was “with no effect”.
Under N796K stands “with no effect”; under N796A, “with no effect”; under N796E, “with no effect”.

These data come from IntAct's records for PubMed 29039417.
